Experimental data reported in patent US20240254229A1 (Molecular Partners, published 2024).

T1: biotinylated extracellular domain of human CD123 (SEQ ID NO: 88), Fc and Avi tagged (human, UniProt P26951 19-303, biotinylated with BirA-GST (Avi tag))
T1 construct: also called hCD123
T1 sequence: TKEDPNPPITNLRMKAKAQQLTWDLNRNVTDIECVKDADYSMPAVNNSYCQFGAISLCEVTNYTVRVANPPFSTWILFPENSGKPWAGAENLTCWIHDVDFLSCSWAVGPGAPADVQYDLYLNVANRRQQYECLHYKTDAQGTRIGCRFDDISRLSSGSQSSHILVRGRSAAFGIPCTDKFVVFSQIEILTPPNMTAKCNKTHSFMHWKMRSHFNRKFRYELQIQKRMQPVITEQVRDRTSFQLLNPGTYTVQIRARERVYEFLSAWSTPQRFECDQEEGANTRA

T2: extracellular domain of human CD70 (SEQ ID NO: 89), hCD70-Fc-trimer, ACRO Biosystems (human, UniProt P32970 52-193, chemically biotinylated where the biotinylated form was used)
T2 construct: also called human CD70-Fc-trimer; Bio.CD70
T2 sequence: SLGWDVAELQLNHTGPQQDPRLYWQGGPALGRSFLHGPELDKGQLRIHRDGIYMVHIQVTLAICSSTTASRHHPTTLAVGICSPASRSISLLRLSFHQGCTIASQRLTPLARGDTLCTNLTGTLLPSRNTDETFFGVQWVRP

B1: DARPin® protein #61 (designed binder)
chain: DLGKKLLEAARAGQDDEVRELLKAGADVNAKDYFSHTPLHLAARNGHLKIVEVLLKAGADVNAKDFAGKTPLHLAAADGHLEIVEVLLKAGADVNAQDIFGKTPADIAADAGHEDIAEVLQKAAGSPTPTPTTPTPTPTTPTPTPTGSDLGKKLLEAARAGQDDEVRELLKAGADVNAKDYFSHTPLHLAARNGHLKIVEVLLKAGADVNAKDFAGKTPLHLAAADGHLEIVEVLLKAGADVNAQDIFGKTPADIAADAGHEDIAEVLQKAAGSPTPTPTTPTPTPTTPTPTPTGSDLGKKLLQAARAGQLDEVRELLKAGADVNAKDQQGLTPLHIAANLGHLEIVEVLLKAGADVNAKDLFGLTPLHLAAFEGHLEIVEVLLKAGADVNAKDQHGATPLHLAAWVGHLEIVEVLLKAGADVNAQDKSGKTPADLAARAGHQDIAEVLQKAAGSPTPTPTTPTPTPTTPTPTPTGSDLGKKLLQAALEGQLDEVRELLKAGADVNAKDIEGYTPLHLAAALGHLEIVEVLLKAGADVNAKDQIGRTPLHLAAYKGHLEIVEVLLKAGADVNAQDIIGQTPADLAAQRGHQDIAEVLQKAAGSPTPTPTTPTPTPTTPTPTPTGSDLGKKLLLAAERGQLDEVRILLKAGADVNAKDRAEGYTPLHIAAYQGHLEIVEVLLKAGADVNAKDRYGKTPLHLAAISGHLEIVEVLLKAGADVNAQDNKGSTPADLAADYGHQDIAEVLQKAAGSPTGSDLGQKLLEAAWAGQDDEVRELLKAGADVNAKNSRGWTPLHTAAQTGHLEIFEVLLKAGADVNAKNDKRVTPLHLAAALGHLEIVEVLLKAGADVNARDSWGTTPADLAAKYGHQDIAEVLQKAA
notes: HSA-HSA-CD70-CD123-CD33-CD3
B2: DARPin® protein #62 (designed binder)
chain: DLGKKLLEAARAGQDDEVRELLKAGADVNAKDYFSHTPLHLAARNGHLKIVEVLLKAGADVNAKDFAGKTPLHLAAADGHLEIVEVLLKAGADVNAQDIFGKTPADIAADAGHEDIAEVLQKAAGSPTPTPTTPTPTPTTPTPTPTGSDLGKKLLEAARAGQDDEVRELLKAGADVNAKDYFSHTPLHLAARNGHLKIVEVLLKAGADVNAKDFAGKTPLHLAAADGHLEIVEVLLKAGADVNAQDIFGKTPADIAADAGHEDIAEVLQKAAGSPTPTPTTPTPTPTTPTPTPTGSDLGIKLLTAAYDGQLDEVRILLKAGADVNAKDLRGQTPLHYAAGLGHLEIVEVLLKAGADVNAKDLHGWTPLHLAAWSGHLEIVEVLLKAGADVNAQDVEGVTPADLAAVQGHQDIAEVLQKAAGSPTPTPTTPTPTPTTPTPTPTGSDLGVKLLLAAERGQLDEVRILLKAGADVNAKDIAEGYTPLHIAAYQGHLEIVEVLLKAGADVNAKDRYGKTPLHLAAIGGHLEIVEVLLKAGADVNAQDNKGSTPADLAADYGHQDIAEVLQKAAGSPTPTPTTPTPTPTTPTPTPTGSDLGKKLLEAALEGQLDEVRELLKAGADVNAKDQEGYTPLHLAAALGHLEIVEVLLKAGADVNAKDQIGRTPLHLAAYKGHLEIVEVLLKAGADVNAQDIIGQTPADLAAQRGHQDIAEVLQKAAGSPTPTPTTPTPTPTTPTPTPTGSDLGQKLLEAAWAGQDDEVRELLKAGADVNAKNSRGWTPLHTAAQTGHLEIFEVLLKAGADVNAKNDKRVTPLHLAAALGHLEIVEVLLKAGADVNARDSWGTTPADLAAKYGHQDIAEVLQKAA
notes: HSA-HSA-CD70-CD33-CD123-CD3
B3: DARPin® protein #50 (designed binder)
chain: MRGSHHHHHHDLGKKLLEAARAGQDDEVRELLKAGADVNAKDYFSHTPLHLAARNGHLKIVEVLLKAGADVNAKDFAGKTPLHLAAADGHLEIVEVLLKAGADVNAQDIFGKTPADIAADAGHEDIAEVLQKAAGSPTPTPTTPTPTPTTPTPTPTGSDLGYKLLQAAYDGQLDEVRILLKAGADVNAKDSRGQTPLHYAASIGHLEIVEVLLKAGADVNAKDDHGWTPLHLAAWSGHLEIVEVLLKAGADVNAQDQEGTTPADLAAVQGHQDIAEVLQKAAGSPTPTPTTPTPTPTTPTPTPTGSDLGVKLLLAASRGQLDEVRILLKAGADVNAKDIDEGYTPLHIAAYYGHLEIVEVLLKAGADVNAKDRYGKTPLHLAAISGHLEIVEVLLKAGADVNAQDDKGDTPADLAADYGHQDIAEVLQKAAGSPTPTPTTPTPTPTTPTPTPTGSDLGQKLLEAAWAGQDDEVRELLKAGADVNAKNSRGWTPLHTAAQTGHLEIFEVLLKAGADVNAKDDKGVTPLHLAAALGHLEIVEVLLKAGADVNAQDSWGTTPADLAAKYGHEDIAEVLQKAA
notes: HSA-CD70-CD33-CD3
B4: DARPin® protein #51 (designed binder)
chain: MRGSHHHHHHDLGKKLLEAARAGQDDEVRELLKAGADVNAKDYFSHTPLHLAARNGHLKIVEVLLKAGADVNAKDFAGKTPLHLAAADGHLEIVEVLLKAGADVNAQDIFGKTPADIAADAGHEDIAEVLQKAAGSPTPTPTTPTPTPTTPTPTPTGSDLGKKLLEAARAGQDDEVRELLKAGADVNAKDYFSHTPLHLAARNGHLKIVEVLLKAGADVNAKDFAGKTPLHLAAADGHLEIVEVLLKAGADVNAQDIFGKTPADIAADAGHEDIAEVLQKAAGSPTPTPTTPTPTPTTPTPTPTGSDLGYKLLQAAYDGQLDEVRILLKAGADVNAKDSRGQTPLHYAASIGHLEIVEVLLKAGADVNAKDDHGWTPLHLAAWSGHLEIVEVLLKAGADVNAQDQEGTTPADLAAVQGHQDIAEVLQKAAGSPTPTPTTPTPTPTTPTPTPTGSDLGVKLLLAASRGQLDEVRILLKAGADVNAKDIDEGYTPLHIAAYYGHLEIVEVLLKAGADVNAKDRYGKTPLHLAAISGHLEIVEVLLKAGADVNAQDDKGDTPADLAADYGHQDIAEVLQKAAGSPTPTPTTPTPTPTTPTPTPTGSDLGQKLLEAAWAGQDDEVRELLKAGADVNAKNSRGWTPLHTAAQTGHLEIFEVLLKAGADVNAKDDKGVTPLHLAAALGHLEIVEVLLKAGADVNAQDSWGTTPADLAAKYGHEDIAEVLQKAA
notes: HSA-HSA-CD70-CD33-CD3

Key:
[1] = target: T3, Molm-13 N1 tumor cells (carrying CD123, CD33 and CD70) (human, UniProt P20138 18-364; P26951 19-378; P32970 1-193); test: flow cytometry on Molm-13 N1 cells, 20 uM HSA
T3 construct: whole, on cells; Not a complex: three separate antigens on one cell; also called Molm-13 N1 cells
T3 sequence (P20138 18-364, one chain of several): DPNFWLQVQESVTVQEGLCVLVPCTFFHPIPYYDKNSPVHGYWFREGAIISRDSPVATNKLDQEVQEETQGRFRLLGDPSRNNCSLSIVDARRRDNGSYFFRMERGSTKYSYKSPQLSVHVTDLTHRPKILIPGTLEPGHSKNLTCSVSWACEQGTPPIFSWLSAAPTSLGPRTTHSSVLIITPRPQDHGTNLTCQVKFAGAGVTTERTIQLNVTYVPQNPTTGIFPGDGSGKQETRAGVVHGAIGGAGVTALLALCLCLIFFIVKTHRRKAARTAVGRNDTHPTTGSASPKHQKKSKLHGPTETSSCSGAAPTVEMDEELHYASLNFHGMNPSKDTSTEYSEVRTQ
Protocol: The determination of binding of several multispecific proteins to tumor cells was performed by Fluorescence Activated Cell Sorting (FACS) flow cytometry. Therefore, tumor cells (Molm-13 N1), were seeded at 100′000 cells per well in a 96 well plate. DARPin® protein #56, DARPin® protein #57, DARPin® protein #58, DARPin® protein #59, DARPin® protein #60, DARPin® protein #61 and DARPin® protein #62 were titrated down starting at 100 nM in 1:5 dilution ratio. Tumor cells were resuspended with diluted DARPin® proteins and incubated 60 minutes at 4° C. The assay was performed in PBS including 2% fetal bovine serum and human serum albumin 20 uM (HSA). After washing twice with Phosphate Buffer saline (PBS), DARPin® protein specific tumor cell binding was detected by adding unlabelled primary […] (anti-rabbit 1-1-1 antibody, CePower) at 2 ug/ml. An incubation step of at least 30 minutes at 4° C. followed. Afterwards, cells were washed with PBS and a secondary anti-rabbit antibody labelled with Alexa Fluor 647 antibody (ThermoFisher) at 2 ug/ml was added. The same incubation conditions applied. Finally, the cells were washed twice and resuspended in Cytofix fixation buffer (BD Biosciences) for 15 min at room temperature (RT). Median fluorescence intensities (MFI) of Alexa Fluor 647 DARPin® labelled cells were measured by Attune NxT (Thermo Fisher) using FlowJo software for analyses and GraphPad Prism 8 for data plotting.

[2] = target: T1, biotinylated extracellular domain of …; test: SPR (ProteOn XPR36), target on GLC chip
Excerpt: (§1) For that, DARPin® protein #27, DARPin® protein #29, DARPin® protein #47 and DARPin® protein #48 and DARPin® protein #49, DARPin® protein #50, DARPin® protein #51, DARPin® protein #52, DARPin® protein #31, DARPin® protein #53, DARPin® protein #54, DARPin® protein #55, DARPin® protein #34, DARPin® protein #33, DARPin® protein #39 and DARPin® protein #36 were subcloned and expressed as described above into derivatives of the pQE30 (Qiagen) expression vector, containing an N-terminal His-tag, CD33, CD123 and/or CD70 binding ankyrin repeat domains, followed by a CD3 specific ankyrin repeat domain and for some constructs by a human serum albumin specific ankyrin repeat domain.
(§2) Briefly, biotinylated human CD70, CD123 and CD33 was diluted in PBST (PBS, pH 7.4 containing 0.005% Tween 20®) and coated on a GLC chip (BioRad) to a level of around 200, 460 and 450 resonance units (RU) respectively. HSA in NaOAc pH 5.0 was directly immobilized on the GLC chip to a level of 800 RU. Bio.CD70, bio. CD33 and bio. CD123 required to have Neutravidin coated first to a level of 6000 RU before the biotinylated targets could be applied. The interaction of the selected ankyrin repeat proteins and human CD70, CD123 and CD33 was then measured by injecting 300 μl running buffer (PBS, pH 7.4 containing 0.005% Tween 20®) containing serial dilutions of ankyrin repeat proteins covering a concentration range between 100 nM and 2.6 nM (100, 40, 16, 6.4 and 2.6 nM respectively) for multi-trace SPR measurements, with an association of 120 s and dissociation of 1200 s using a constant flow of 100 μl/min. The regeneration was performed using 30 μl of 4 mM Glycine pH 2. The signals (i.e. resonance unit (RU) values) of the interspots and a reference injection (i.e. injection of running buffer only) were subtracted from the RU traces obtained after injection of ankyrin repeat protein (double-referencing).

[3] = target: T2, extracellular domain of human CD70 (SEQ …); test: SPR (ProteOn XPR36), target on GLC chip, DARPin as analyte
Excerpt: as §1, §2

[4] = target: T4, biotinylated extracellular domain of human CD33 (SEQ ID NO: 87), Fc and Avi tagged (human, UniProt P20138 18-259, biotinylated with BirA-GST (Avi tag)); test: as above
T4 construct: also called hCD33; human target hCD33
T4 sequence (P20138 18-259 R69G): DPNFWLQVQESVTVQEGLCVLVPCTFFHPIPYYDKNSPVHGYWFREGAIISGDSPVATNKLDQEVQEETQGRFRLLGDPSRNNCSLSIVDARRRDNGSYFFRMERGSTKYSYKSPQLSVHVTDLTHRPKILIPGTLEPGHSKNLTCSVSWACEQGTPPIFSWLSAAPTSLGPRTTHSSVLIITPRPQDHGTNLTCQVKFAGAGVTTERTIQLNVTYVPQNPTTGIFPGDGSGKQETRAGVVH
Excerpt: as §1, §2

human serum albumin = target: T5, human serum albumin (human, UniProt P02768 25-609); test: as above
T5 construct: also called HSA; SA
T5 sequence (P02768 25-609 limits assumed): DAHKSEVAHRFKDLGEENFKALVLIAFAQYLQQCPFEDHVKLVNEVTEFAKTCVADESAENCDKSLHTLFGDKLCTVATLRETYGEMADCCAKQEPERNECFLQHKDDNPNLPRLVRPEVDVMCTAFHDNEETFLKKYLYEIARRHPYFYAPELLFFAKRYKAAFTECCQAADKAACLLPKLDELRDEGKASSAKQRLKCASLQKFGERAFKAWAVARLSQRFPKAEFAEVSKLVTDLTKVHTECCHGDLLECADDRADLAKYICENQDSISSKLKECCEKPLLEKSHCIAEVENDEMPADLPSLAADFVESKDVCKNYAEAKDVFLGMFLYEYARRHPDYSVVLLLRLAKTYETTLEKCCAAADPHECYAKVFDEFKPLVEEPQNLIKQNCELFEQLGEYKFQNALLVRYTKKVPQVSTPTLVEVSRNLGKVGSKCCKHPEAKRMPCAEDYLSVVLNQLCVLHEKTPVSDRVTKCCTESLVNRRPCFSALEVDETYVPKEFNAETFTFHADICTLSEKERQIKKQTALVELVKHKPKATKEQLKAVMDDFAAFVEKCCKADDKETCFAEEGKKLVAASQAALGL
Excerpt: as §1, §2

| Binder | EC50 [1] [nM] | binding result [2] | Kd [3] [nM] | Kd [4] [nM] | Kd (human serum albumin) [nM] |
| --- | --- | --- | --- | --- | --- |
| B1 | 0.13 |  |  |  |  |
| B2 | 0.36 |  |  |  |  |
| B3 |  | no binding (tested: 100 nM (highest concentration)) | 0.81 | 7.5 | 24 |
| B4 |  | no binding (tested: 100 nM (highest concentration)) | 0.56 | 5.5 | 1.3 |
